Assay results taken from publication PMC2953525, “Subtle Alterations in PCNA-Partner Interactions Severely Impair DNA Replication and Repair” (PLoS Biology, 2010).
Positions count from the first letter of the chain named.

What was measured:
[1] = biological target: Ung1 PIP peptide; experiment: SPR analysis of PCNA binding to PIP peptide; parameters: species or system yeast; conditions: PCNA immobilized, peptide 5-5,000 nM, ProteOn XPR36; read-out: Binding affinity for Ung1 PIP peptide (SPR)
From the text: To quantify differences in binding affinities of the PCNA mutants relative to the WT, we characterized four PCNA mutants with increased affinity for PIP peptides derived from Rad30, Pol32, Msh6, and Ung1 partners using SPR. These mutants were overexpressed in E. coli, purified by affinity chromatography, and immobilized on an SPR sensor chip for binding characterization. SPR binding analysis enabled direct and sensitive measurement of interaction affinities relative to the Y2H system and indicated an up to 8-fold increase in binding affinity for the different PIP peptides, relative to WT PCNA (Table 1). Such analysis allowed the detection of a significant decrease in the Rad30 PIP peptide dissociation rate in the Pol30-Rad30E9p mutant relative to the WT, indicating a ∼9-fold increase in the lifetime of the PCNA-Rad30 complex (see Table 1). Collectively the ELISA, Y2H, and SPR assays validated and quantified the increase in mutant PCNA binding affinities, relative to WT PCNA.
Protein interaction assays were carried out using the ProteOn XPR36 (Bio-Rad) instrument. WT or PCNA mutants (0.4 to 5.2 fmol) were immobilized on the surface of a GLM sensor chip by a carbodiimide-activated succinimide-coupling method, as specified by the manufacturer. All SPR experiments were performed by flowing 150 µl of the target peptide at a flow rate of 30 µl/min onto the PCNA-bound chip. Different concentrations (5–5,000 nM) of PIP peptides (Table 1) were injected over the PCNA chip, and binding parameters were determined using ProteOn XPR36 software (Bio-Rad). The ligand (PCNA) and analyte (peptide) buffers were PBST and 150 mM NaCl, 1 mM EDTA, 0.01% Tween-80, 30 mM Hepes, pH 7.5, respectively.

[2] = system: mutated Rad30 PIP peptide; experiment: Yeast surface display of PCNA, PIP peptide binding by flow cytometry; conditions: peptide with the two conserved phenylalanines mutated to alanine
Experimental: (§1) Briefly, EBY100 transformed with plasmid pCTCON-PCNA were grown in SDCAA media to logarithmic phase and 2×10^6 of cells were washed, resuspended in SGCAA induction media, and grown at 20°C with shaking for an additional 18 h. Induced cells (1×10^6) were collected by centrifugation, washed with PBSF (PBS+ 1 g/L BSA), and incubated for 1 h at 25°C with mouse α-Myc antibodies (Santa Cruz Biotechnology, 1 µl/50 µl PBSF) and 100–400 µM of biotinylated PIP peptide (Peptron, see Figure S1 for peptide sequences). […] The labeled cells were washed, resuspended with PBSF, and analyzed by flow cytometry (FACS Calibur, BD).
(§2) Supplementary file pbio.1000507.s003.pdf: Figure S3 Yeast surface display of PCNA. […] Expression is detected through fluorescent antibody binding to the c-Myc epitope tag (light blue) while binding of the biotinylated PIP peptide (orange) is detected using fluorescently-labeled streptavidin (green). […] The specificity of PCNA binding for PIP peptides was detected following incubation with biotinylated PIP peptide derived from Rad30 (B and D) and mutated Rad30 in which the two conserved phenylalanine residues of the PIP peptide are mutated to alanine (C), followed by incubation with allophycocyanin (APC)-labeled streptavidin (y-axis). […]

[3] = system: Rad30 PIP peptide; experiment: as above; conditions: biotinylated peptide, APC-streptavidin, compared with WT PCNA / Rad30 PIP peptide
Experimental: as §1, §2

[4] = system: PCNA-Rad30 complex; experiment: ELISA for PCNA-partner complexes extracted from yeast cells; assay type: binding; conditions: ELISA of yeast extracts, GFP signal normalized to immobilized PCNA signal; averages of at least 5 independent repeats
From the text: (§3) To examine whether increased PCNA-partner interaction affinities result in increased PCNA-partner complex formation in vivo in pol30 mutant strains, we analyzed the levels of these complexes extracted from yeast cells. We used strains expressing the pol30 mutants as a sole source of PCNA in the cell under the control of the native POL30 promoter (see below). We immobilized PCNA from the crude yeast extracts onto ELISA plates and analyzed the amount of bound partner, relative to the amount of total PCNA immobilized on the plate (Figure 4).
(§4) Figure 4 Increased levels of in vivo PCNA-partner complex formation in the pol30-Rad30E2 or the pol30-Rad27E6 mutant strains, relative to the POL30 strain. (A). ELISA experimental set-up for the detection of PCNA-partner complexes extracted directly from WT and mutant PCNA strains. The assay is based on the immobilization of PCNA-partner complex using anti-PCNA antibody-coated ELISA plates. Detection of complex levels is performed using antibodies against the GFP fused to the C-terminal of the PCNA partner. […]
(§5) Yeast cell extracts were generated from 0.5 L of logarithmic cultures using conventional methods. […] Following centrifugation, cell extracts were collected and protein concentration was determined by the BCA method. […] PCNA-partner complex levels were calculated as the ratio of the GFP signal to the PCNA signal detected for the same cell extract. […]

[5] = system: PCNA-Rad27 complex; experiment: as above; assay type: binding; conditions: ELISA of yeast extracts, GFP signal normalized to immobilized PCNA signal; averages of at least 5 independent repeats
From the text: as §3, §4, §5

POL30: wild-type yeast PCNA (POL30), IDCL sequence DIDADFLKIEEL
Kd [1]: 1200 nM | binding to a mutated Rad30 PIP peptide (yeast surface display) [2]: dramatic reduction in binding affinity

B1: pol30-79: previously studied PCNA mutant with decreased partner binding, IDCL sequence DIDADFAKAEEL (protein)
chain: MLEAKFEEASLFKRIIDGFKDCVQLVNFQCKEDGIIAQAVDDSRVLLVSLEIGVEAFQEYRCDHPVTLGMDLTSLSKILRCGNNTDTLTLIADNTPDSIILLFEDTKKDRIAEYSLKLMDIDADFAKAEELQYDSTLSLPSSEFSKIVRDLSQLSDSINIMITKETIKFVADGDIGSGSVIIKPFVDMEHPETSIKLEMDQPVDLTFGAKYLLDIIKGSSLSDRVGIRLSSEAPALFQFDLKSGFLQFFLAPKFNDEE
modifications: left off: Gal4 activation domain, end not stated, kept
binding to the Rad30 PIP peptide (yeast surface display) [3]: dramatic reduction in binding affinity

B2: pol30-Rad30E2: PCNA mutant evolved for Rad30, IDCL sequence DDDWDFLKILEL (protein)
chain: B1 chain with I121D, A123W, A126L, A128I, E129L
modifications: left off: Gal4 activation domain, end not stated, kept
increase in PCNA-Rad30 complex formation relative to the POL30 WT strain [4]: 70%

B3: pol30-Rad27E6: PCNA mutant evolved for Rad27, IDCL sequence DGDYDILKIREL (protein)
chain: B1 chain with I121G, A123Y, F125I, A126L, A128I, E129R
modifications: left off: Gal4 activation domain, end not stated, kept
increase in PCNA-Rad27 complex formation relative to the POL30 WT strain [5]: 17%
